Measured values published in PMC4888959 (Molecular microbiology, 2015).

T1: CsrD^ΔHAMP (MBP-tagged CsrD residues 192–646) (E. coli, UniProt P13518 192-646)
T1 sequence (looked up): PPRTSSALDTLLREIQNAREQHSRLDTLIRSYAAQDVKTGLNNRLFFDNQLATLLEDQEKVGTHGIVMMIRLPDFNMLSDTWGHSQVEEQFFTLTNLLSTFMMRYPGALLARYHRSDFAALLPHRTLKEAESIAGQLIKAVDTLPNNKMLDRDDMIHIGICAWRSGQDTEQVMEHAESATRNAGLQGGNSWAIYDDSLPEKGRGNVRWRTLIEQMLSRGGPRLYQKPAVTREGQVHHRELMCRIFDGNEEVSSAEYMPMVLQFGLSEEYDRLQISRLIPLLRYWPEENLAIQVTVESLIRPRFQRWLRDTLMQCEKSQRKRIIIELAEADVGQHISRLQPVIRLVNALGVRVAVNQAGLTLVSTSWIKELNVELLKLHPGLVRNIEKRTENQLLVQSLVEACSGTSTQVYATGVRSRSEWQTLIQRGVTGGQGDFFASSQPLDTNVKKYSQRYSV

B1: EAL (MBP-tagged EAL domain of CsrD, residues 393–646) (domain or fragment, E. coli, UniProt P13518 393-646, looked up)
chain: GRGNVRWRTLIEQMLSRGGPRLYQKPAVTREGQVHHRELMCRIFDGNEEVSSAEYMPMVLQFGLSEEYDRLQISRLIPLLRYWPEENLAIQVTVESLIRPRFQRWLRDTLMQCEKSQRKRIIIELAEADVGQHISRLQPVIRLVNALGVRVAVNQAGLTLVSTSWIKELNVELLKLHPGLVRNIEKRTENQLLVQSLVEACSGTSTQVYATGVRSRSEWQTLIQRGVTGGQGDFFASSQPLDTNVKKYSQRYSV
B2: CsrD^ΔEAL (MBP-tagged CsrD residues 156–385) (domain or fragment, E. coli, UniProt P13518 156-385, looked up)
chain: RWLQRQLAGQELLETRATRILNGERGSNVLGTIYEWPPRTSSALDTLLREIQNAREQHSRLDTLIRSYAAQDVKTGLNNRLFFDNQLATLLEDQEKVGTHGIVMMIRLPDFNMLSDTWGHSQVEEQFFTLTNLLSTFMMRYPGALLARYHRSDFAALLPHRTLKEAESIAGQLIKAVDTLPNNKMLDRDDMIHIGICAWRSGQDTEQVMEHAESATRNAGLQGGNSWAIY
B3: CsrD^ΔGGDEF (MBP-tagged CsrD residues 156–223 and 393–646) (domain or fragment, E. coli, UniProt P13518 156-223, looked up)
chain: RWLQRQLAGQELLETRATRILNGERGSNVLGTIYEWPPRTSSALDTLLREIQNAREQHSRLDTLIRSYGRGNVRWRTLIEQMLSRGGPRLYQKPAVTREGQVHHRELMCRIFDGNEEVSSAEYMPMVLQFGLSEEYDRLQISRLIPLLRYWPEENLAIQVTVESLIRPRFQRWLRDTLMQCEKSQRKRIIIELAEADVGQHISRLQPVIRLVNALGVRVAVNQAGLTLVSTSWIKELNVELLKLHPGLVRNIEKRTENQLLVQSLVEACSGTSTQVYATGVRSRSEWQTLIQRGVTGGQGDFFASSQPLDTNVKKYSQRYSV
B4: His-tagged EIIA^Glc (enzyme IIA^Glc of the glucose-specific PTS), unphosphorylated (natural protein, E. coli, UniProt P69783 1-169, looked up)
chain: MGLFDKLKSLVSDDKKDTGTIEIIAPLSGEIVNIEDVPDVVFAEKIVGDGIAIKPTGNKMVAPVDGTIGKIFETNHAFSIESDSGVELFVHFGIDTVELKGEGFKRIAEEGQRVKVGDTVIEFDLPLLEEKAKSTLTPVVISNMDEIKELIKLSGSVTVGETPVIRIKK
B5: CsrD^ΔTM (MBP-tagged CsrD residues 156–646, transmembrane domains replaced with MBP) (domain or fragment, E. coli, UniProt P13518 156-646, looked up)
chain: RWLQRQLAGQELLETRATRILNGERGSNVLGTIYEWPPRTSSALDTLLREIQNAREQHSRLDTLIRSYAAQDVKTGLNNRLFFDNQLATLLEDQEKVGTHGIVMMIRLPDFNMLSDTWGHSQVEEQFFTLTNLLSTFMMRYPGALLARYHRSDFAALLPHRTLKEAESIAGQLIKAVDTLPNNKMLDRDDMIHIGICAWRSGQDTEQVMEHAESATRNAGLQGGNSWAIYDDSLPEKGRGNVRWRTLIEQMLSRGGPRLYQKPAVTREGQVHHRELMCRIFDGNEEVSSAEYMPMVLQFGLSEEYDRLQISRLIPLLRYWPEENLAIQVTVESLIRPRFQRWLRDTLMQCEKSQRKRIIIELAEADVGQHISRLQPVIRLVNALGVRVAVNQAGLTLVSTSWIKELNVELLKLHPGLVRNIEKRTENQLLVQSLVEACSGTSTQVYATGVRSRSEWQTLIQRGVTGGQGDFFASSQPLDTNVKKYSQRYSV

Tests used:
[1] = molecular target: B4; assay: SEC
[2] = molecular target: the molecule itself; assay: SEC
[3] = molecular target: B4; assay: pull-down
[4] = molecular target: T1, CsrD^ΔHAMP (MBP-tagged CsrD residues …); assay: pull-down
[5] = molecular target: B1; assay: pull-down

Binder: B1
stoichiometry N [1]: 1 EAL per EIIA^Glc

Binder: B2
stoichiometry N [2]: 4

Binder: B3
binding result [3]: binds
stoichiometry N [2]: 4

Binder: B4
binding result [4]: binds
binding result [5]: binds

Binder: B5
stoichiometry N [2]: 4
